Laboratory results reported in US20210340531A1 (YALE UNIVERSITY, published 2021).
Where a chain is given by its changes, count along the chain named. Numbers in names are those of the source.

Key:
gel filtration = target: the molecule itself; test: gel filtration
keratin 10 helix 1B [1] = target: T1, keratin 10 helix 1B (human, UniProt P13645 195-296); test: K1 knob mutants with K10-1B
T1 construct: Single chain of the K1/K10-1B complex; His6 tag removed with thrombin before gel filtration, light scattering and crystallization; also called K10-1B; K10

keratin 10 helix 1B [2] = target: T1, keratin 10 helix 1B; test: X-ray crystal structure, asymmetric unit
Method: The final model of the K1^S233L/K10-1B mutant crystal asymmetric unit contained one K1-1B S233L and one K10-1B molecules. The final Ramachandran statistics were: residues in favorable regions, 99%; in allowed regions, 1%; in outlier regions, 0%. Electrostatics were calculated using PDB2PQR and Adaptive Poisson-Boltzmann Software (APBS). Structural analyses were performed using Coot, UCSF Chimera (Resource for Biocomputing, Visualization, and Informatics, University of California, San Francisco), WHAT IF, ESBRI, and PDBePISA (The European Bioinformatics Institute, European Molecular Biology Laboratory, UK). Figures were prepared using UCSF Chimera and Adobe Illustrator. Atomic coordinates and structure factors have been deposited in the Protein Data Bank under the accession code TBD.
Mutant K1/K10-1B (22.8 mg/ml) in 100 mM Tris-HCl buffer (pH 7.4) containing 200 mM NaCl was crystallized using 100 mM Tris buffer (pH 8.5) containing 1.5M ammonium sulfate and 12% glycerol. Crystals were soaked 1-3 min in a cryoprotectant solution containing 27% glycerol in mother liquor prior to flash-freezing in liquid nitrogen. One native data set on a single crystal was collected (λ=0.9795 Å). The native crystal belonged to the hexagonal space group P6 22 (cell dimensions: a=93.29 Å, b=93.29 Å, c=124.74 Å, α=β=90, γ=120). […]

[3] = target: the molecule itself; test: in vitro filament assembly, negative-stain electron microscopy
Method: Filament assembly was terminated after 10 min by adding stop buffer (0.2% glutaraldehyde, 20 mM KCl, 0.7 mM NaHPO). Filament samples were immediately applied to a Carbon type B-400 mesh-Copper grid charged with Pelco easiGlow (Ted Pella, Redding, Calif.) at 25 mA for 30s, and negatively stained using 2% aqueous uranyl acetate. Images were captured with a Talos L120C Electron Microscope from FEI (Hillsboro, Oreg.).
Protein production and purification: Full-length wild-type K1, K10, K8, K18, and vimentin constructs in pET-21a(+) or pET-24a(+) based plasmids are used. K1, K8, and vimentin knob mutants (both individual [FA, LA] and double [FLAA] residue mutants) are also used. K10 is expressed in E. coli BL21(DE3)pLysS cells at 20° C. for 72 hours using an autoinduction method. Expression of all other keratins and vimentins occur in E. coli BL21(DE3) cells using LB at 37° C. for 3 hours with 1 mM IPTG for induction. […]
Electron microscopy: Filament samples are immediately applied to a Carbon type B-400 mesh-Copper grid charged with Pelco easiGlow (Ted Pella, Redding, Calif.) at 25 mA for 30s, and negatively stained using 2% aqueous uranyl acetate. […] Images are analyzed for the number, length, width, and shape of filamentous structures formed at each timepoint to evaluate the dynamics of IF assembly in vitro for both wild-type and knob mutant proteins.

B1: K1-L318A/10-1B mutant heterodimer (other)
chain 1: NLEPYFESFINNLRRRVDQLKSDQSRLDSELKNMQDMVEDYRNKYEDEINKRTNAENEFVTIKKDVDGAYMTKVDLQAKLDNLQQEIDFLTAAYQAELSQMQTQIS
chain 2: not shown
notes: also called L318A^K1 (LA); K1-L318A/K10-1B
binding result (gel filtration): binds

B2: keratin 1 helix 1B F314A+L318A (other)
chain: B1 chain 1 with F89A
notes: Single chain; also called K1-1B mutant F314A+L318A; FLAA
binding result (keratin 10 helix 1B [1]): binds

B3: keratin 1 helix 1B L318A (other)
chain: B1 chain 1
notes: Single chain; also called K1-1B mutant L318A; LA
binding result (keratin 10 helix 1B [1]): binds

B4: keratin 1 helix 1B S233L (other)
chain: B1 chain 1 with S8L, A93L
notes: Single chain of the mutant complex; also called K1^S233L-1B; K1-1B S233L
binding result (keratin 10 helix 1B [2]): binds

B5: full-length wild-type K1/K10 heterodimeric complex (other)
chain 1: MSRQFSSRSGYRSGGGFSSGSAGIINYQRRTTSSSTRRSGGGGGRFSSCGGGGGSFGAGGGFGSRSLVNLGGSKSISISVARGGGRGSGFGGGYGGGGFGGGGFGGGGFGGGGIGGGGFGGFGSGGGGFGGGGFGGGGYGGGYGPVCPPGGIQEVTINQSLLQPLNVEIDPEIQKVKSREREQIKSLNNQFASFIDKVRFLEQQNQVLQTKWELLQQVDTSTRTHNLEPYFESFINNLRRRVDQLKSDQSRLDSELKNMQDMVEDYRNKYEDEINKRTNAENEFVTIKKDVDGAYMTKVDLQAKLDNLQQEIDFLTALYQAELSQMQTQISETNVILSMDNNRSLDLDSIIAEVKAQNEDIAQKSKAEAESLYQSKYEELQITAGRHGDSVRNSKIEISELNRVIQRLRSEIDNVKKQISNLQQSISDAEQRGENALKDAKNKLNDLEDALQQAKEDLARLLRDYQELMNTKLALDLEIATYRTLLEGEESRMSGECAPNVSVSVSTSHTTISGGGSRGGGGGGYGSGGSSYGSGGGSYGSGGGGGGGRGSYGSGGSSYGSGGGSYGSGGGGGGHGSYGSGSSSGGYRGGSGGGGGGSSGGRGSGGGSSGGSIGGRGSSSGGVKSSGGSSSVRFVSTTYSGVTR
chain 2: MSVRYSSSKHYSSSRSGGGGGGGGCGGGGGVSSLRISSSKGSLGGGFSSGGFSGGSFSRGSSGGGCFGGSSGGYGGLGGFGGGSFRGSYGSSSFGGSYGGIFGGGSFGGGSFGGGSFGGGGFGGGGFGGGFGGGFGGDGGLLSGNEKVTMQNLNDRLASYLDKVRALEESNYELEGKIKEWYEKHGNSHQGEPRDYSKYYKTIDDLKNQILNLTTDNANILLQIDNARLAADDFRLKYENEVALRQSVEADINGLRRVLDELTLTKADLEMQIESLTEELAYLKKNHEEEMKDLRNVSTGDVNVEMNAAPGVDLTQLLNNMRSQYEQLAEQNRKDAEAWFNEKSKELTTEIDNNIEQISSYKSEITELRRNVQALEIELQSQLALKQSLEASLAETEGRYCVQLSQIQAQISALEEQLQQIRAETECQNTEYQQLLDIKIRLENEIQTYRSLLEGEGSSGGGGRGGGSFGGGYGGGSSGGGSSGGGHGGGHGGSSGGGYGGGSSGGGSSGGGYGGGSSSGGHGGSSSGGYGGGSSGGGGGGYGGGSSGGGSSSGGGYGGGSSSGGHKSSSSGSVGESSSKGPRY
notes: also called WT K1/K10
binding result [3]: binds

B6: full-length wild-type K8/K18 heterodimeric complex (other, human)
chain 1: MSIRVTQKSYKVSTSGPRAFSSRSYTSGPGSRISSSSFSRVGSSNFRGGLGGGYGGASGMGGITAVTVNQSLLSPLVLEVDPNIQAVRTQEKEQIKTLNNKFASFIDKVRFLEQQNKMLETKWSLLQQQKTARSNMDNMFESYINNLRRQLETLGQEKLKLEAELGNMQGLVEDFKNKYEDEINKRTEMENEFVLIKKDVDEAYMNKVELESRLEGLTDEINFLRQLYEEEIRELQSQISDTSVVLSMDNSRSLDMDSIIAEVKAQYEDIANRSRAEAESMYQIKYEELQSLAGKHGDDLRRTKTEISEMNRNISRLQAEIEGLKGQRASLEAAIADAEQRGELAIKDANAKLSELEAALQRAKQDMARQLREYQELMNVKLALDIEIATYRKLLEGEESRLESGMQNMSIHTKTTSGYAGGLSSAYGGLTSPGLSYSLGSSFGSGAGSSSFSRTSSSRAVVVKKIETRDGKLVSESSDVLPK
chain 2: MSFTTRSTFSTNYRSLGSVQAPSYGARPVSSAASVYAGAGGSGSRISVSRSTSFRGGMGSGGLATGIAGGLAGMGGIQNEKETMQSLNDRLASYLDRVRSLETENRRLESKIREHLEKKGPQVRDWSHYFKIIEDLRAQIFANTVDNARIVLQIDNARLAADDFRVKYETELAMRQSVENDIHGLRKVIDDTNITRLQLETEIEALKEELLFMKKNHEEEVKGLQAQIASSGLTVEVDAPKSQDLAKIMADIRAQYDELARKNREELDKYWSQQIEESTTVVTTQSAEVGAAETTLTELRRTVQSLEIDLDSMRNLKASLENSLREVEARYALQMEQLNGILLHLESELAQTRAEGQRQAQEYEALLNIKVKLEAEIATYRRLLEDGEDFNLGDALDSSNSMQTIQKTTTRRIVDGKVVSETNDTKVLRH
notes: also called K8/18
binding result [3]: binds

B7: K1-F314A/10-1B mutant heterodimer (other)
chain 1: B1 chain 1 with F89A, A93L
chain 2: not shown
notes: also called F314A^K1 (FA); K1-F314A/K10-1B
binding result (gel filtration): no binding

B8: K1 F314A+L318A (FLAA)/K10-1B double mutant heterodimer (other)
chain 1: B1 chain 1 with F89A
chain 2: not shown
notes: also called F314A^K1+L318A^K1
binding result (gel filtration): no binding
